“Also recorded” adds a separate entry of the source. Like-named read-outs stand apart in the source and are kept apart here.
What was measured:
[1] = tested on: human platelet-rich plasma (PRP); experiment: ADP-induced human platelet aggregation in platelet-rich plasma; type: cell-based; details: ADP-activated, light transmission, 6 min
Description: FIGS. 1A and 1B show the effect of apyrase APT102 used as such and of a fusion protein thereof, APT402, on platelet aggregation in an ex vivo reaction mixture comprising human platelet-rich plasma (PRP) activated with 20 μM ADP. […] X axis is the assay time (6 min duration), Y axis is the light transmission. […] Arrows indicate addition of ADP and apyrases.
(§1) The inhibitory activity on FX activation was assayed using peripheral blood mononuclear cells (PBMC) purified from normal human donors and anesthetized rabbits by standard methods. […] As expected, APT102 had no effect on PBMC pro-coagulant activity.

[2] = tested on: peripheral blood mononuclear cells (PBMC) from normal human donors; experiment: LPS-induced Factor X activation in human PBMC; type: cell-based; details: human PBMCs
Description: (§2) Peripheral blood mononuclear cells were incubated with LPS (1 mg/ml) to induce tissue factor expression and FX activation measured in the presence of FVII, FX and chromogenic substrate 52765.
as §1

[3] = tested on: peripheral blood mononuclear cells (PBMC) from anesthetized rabbits; experiment: LPS-induced Factor X activation in rabbit PBMC; type: cell-based; details: rabbit PBMCs
Description: as §2, §1

[4] = tested on: thrombin generation in human platelet rich plasma; experiment: Thrombin generation by calibrated automated thrombography (CAT) in ADP-activated human PRP; type: cell-based; details: for peak thrombin concentration / time to peak thrombin: 20 uM ADP-activated human platelets, equal molar concentrations
Description: Shown are thrombograms of nanomolar thrombin that were generated in human platelet rich plasma activated with […].
Thrombin generation in citrated human platelet rich plasma (PRP) was quantified by calibrated automated thrombography (CAT) using the Thrombinoscope system (Synapse), according to methods developed by Hemker et al. Aliquots of PRP were incubated with agents for 15 min at room temperature, and then for 5 min at 37° C. in wells of 96-well plates. Thrombin generation was initiated by addition of 0.5 pM tissue factor and CaCl2 to 16.7 mM and monitored in a microtiter plate fluorometer (Fluoroskan Ascent, Thermo Electron Corp., Vantaa, Finland). Thrombograms (nM thrombin generated vs. time) were generated using the Thrombinoscope software, as were key thrombin generation parameters: lag time to onset of thrombin generation (min), peak thrombin concentration (nM), time to peak thrombin (min), and endogenous thrombin potential (ETP; integrated area under the thrombogram curve).
The effects of APT102, annexin V, APT102+annexin V, and APT402 at equal molar concentrations on thrombin generation from 20 uM ADP-activated human platelets were compared using CAT assays (FIG. 3). […] These features were mimicked by APT402.

[5] = tested on: IVC fibrosis (collagen deposition); experiment: Chronic murine electrolytic injury model (EIM) of DVT, fibrosis; type: in vivo; details: mice, 1.0 mg/kg ip bolus daily for 14 days; for reduction of collagen deposition: Masson's trichrome 14 days post DVT induction
Excerpt: In a chronic fibrotic study, mice were randomized and blinded into the following groups (n=5-12/group).
Collagen deposition was stained with Masson's trichrome 14 days post DVT induction.

[6] = tested on: thrombotic sites of injured arteries; details: rabbit, in vivo
Description: A. APT402 was conjugated to the fluorescent dye (LS288); B. Fluorescent intensity in the injured artery of the rabbit treated with APT402 at 0.2 mg/kg bolus followed by 12 mg/kg/min for 120 min. Each bar represents the mean of 3 readings. C.
A near infra-red (NIR) fluorescent dye (LS288, Ex/Em 773/793) in methanol was conjugated to the functional amines of APT402 (˜1:1). […] For in vivo imaging of the thrombus by fluorescent molecular tomography (FMT), a custom built, fiber-based, portable, video-rate system was used as described (CITE).

[7] = rabbit, in vivo, iv, 0.4 mg/kg
[8] = rabbit, in vivo, iv, 0.2 mg/kg
platelet aggregation = experiment: Ex vivo ADP-induced platelet aggregation after single IV bolus in rabbits; details: rabbit, 0.40 mg/kg IV bolus
arterial thrombosis = experiment: Electrical injury model (EIM) of arterial thrombosis in rabbits; type: in vivo, rabbit
Description: Rabbits were randomized into the following eleven groups with the treatments initiated 30 min before electrical injury.
Electrical injury generated occlusion in 60% of the rabbits treated with saline within 2 h. Average thrombosis weight was 7.8 mg.

[9] = PK (ELISA) with bolus plus continuous IV infusion in rabbits; details: rabbit, bolus plus 120 min infusion; significantly decreased 60 min after discontinuation
[10] = Pharmacokinetics (ADPase activity) after single IV bolus in rabbits
thrombin generation = experiment: Thrombin generation during and after bolus plus infusion in rabbits; type: in vivo, rabbit; details: for thrombin generation: 0.2 mg/kg bolus then 24 μg/kg/min for 120 min
IVC thrombosis = type: in vivo, mice; details: for reduction of thrombus weight: mice
Description: An electrical injury model of venous thrombosis was used for acute study (Diaz J A et al. Thromb Haemost. 104: 366-375, 2010.
Mice were randomized into the following four groups (n=10/group).
The EIM consistently generated IVC thrombosis in all mice with the mean thrombus weight of 22.5 mg. Thrombus weight, BT, APTT and TCT were measured 48 h post DVT induction.

[11] = Haemostasis parameters in healthy rabbits with bolus plus infusion; type: in vivo, rabbit
[12] = Malachite green assay of enzymatic kinetic parameters; type: biochemical
[13] = tested on: rabbit platelet rich plasma; experiment: ADP-induced platelet aggregation in rabbit PRP during and after bolus plus infusion; type: in vivo; details: for ADP-induced (50 uM) platelet aggregation in rabbit PRP: 0.2 mg/kg bolus then 24 μg/kg/min for 120 min
[14] = rabbit, bolus plus 120 min infusion, significantly decreased 60 min after discontinuation

B1: APT102: soluble apyrase, enhanced form of soluble CD39L3 R67G T69R (SEQ ID NO: 2) (protein)
chain: EVLPPGLKYGIVLDAGSSGTRVYVYQWPAEKENNTGVVSQTFKCSVKGSGISSYGNNPQDVPRAFEECMQKVKGQVPSHLHGSTPIHLGATAGMRLLRLQNETAANEVLESIQSYFKSQPFDFRGAQIISGQEEGVYGWITANYLMGNFLEKNLWHMWVHPHGVETTGALDLGGASTQISFVAGEKMDLNTSDIMQVSLYGYVYTLYTHSFQCYGRNEAEKKFLAMLLQNSPTKNHLTNPCYPRDYSISFTMGHVFDSLCTVDQRPESYNPNDVITFEGTGDPSLCKEKVASIFDFKACHDQETCSFDGVYQPKIKGPFVAFAGFYYTASALNLSGSFSLDTFNSSTWNFCSQNWSQLPLLLPKFDEVYARSYCFSANYIYHLFVNGYKFTEETWPQIHFEKEVGNSSIAWSLGYMLSLTNQIPAESPLIRLPIEPPV
inhibition of ADP-induced human platelet aggregation [1]: dose-dependently inhibits
reduction in LPS-induced FX activation [2]: no effect
reduction in LPS-induced FX activation [3]: no effect
peak thrombin concentration [4]: modest inhibitory effect
time to peak thrombin [4]: modest inhibitory effect
deaths, increased bleeding or gross side effects [5]: no deaths or increased bleeding or gross side effects
reduction of collagen deposition [5]: 11%

B2: APT402: fusion protein of apyrase APT102, 20 amino acid linker and annexin V (SEQ ID NO: 7-10) (protein)
chain: MMSFVSLLLVGILFHATQADAPEVLPPGLKYGIVLDAGSSGTRVYVYQWPAEKENNTGVVSQTFKCSVKGSGISSYGNNPQDVPRAFEECMQKVKGQVPSHLHGSTPIHLGATAGMRLLRLQNETAANEVLESIQSYFKSQPFDFRGAQIISGQEEGVYGWITANYLMGNFLEKNLWHMWVHPHGVETTGALDLGGASTQISFVAGEKMDLNTSDIMQVSLYGYVYTLYTHSFQCYGRNEAEKKFLAMLLQNSPTKNHLTNPCYPRDYSISFTMGHVFDSLCTVDQRPESYNPNDVITFEGTGDPSLCKEKVASIFDFKACHDQETCSFDGVYQPKIKGPFVAFAGFYYTASALNLSGSFSLDTFNSSTWNFCSQNWSQLPLLLPKFDEVYARSYCFSANYIYHLFVNGYKFTEETWPQIHFEKEVGNSSIAWSLGYMLSLTNQIPAESPLIRLPIEPPVGSTSGGSTSGGSTSGSGATIAQVLRGTVTDFPGFDERADAETLRKAMKGLGTDEESILTLLTSRSNAQRQEISAAFKTLFGRDLLDDLKSELTGKFEKLIVALMKPSRLYDAYELKHALKGAGTNEKVLTEIIASRTPEELRAIKQVYEEEYGSSLEDDVVGDTSGYYQRMLVVLLQANRDPDAGIDEAQVEQDAQALFQAGELKWGTDEEKFITIFGTRSVSHLRKVFDKYMTISGFQIEETIDRETSGNLEQLLLAVVKSIRSIPAYLAETLYYAMKGAGTDDHTLIRVMVSRSEIDLFNIRKEFRKNFATSLYSMIKGDTSGDYKKALLLLCGEDD
modifications: CDS (1)..(2397)
binding to thrombus [6]: bound to thrombus
signal in the non-injured control carotid [6]: no increased signal
elimination half-life (t1/2) [7]: 6 h
time by which detectable in the plasma after administration (ELISA) [8]: ≤ 30 min
inhibition of ADP-induced human platelet aggregation [1]: dose-dependently inhibits; also recorded: comparable potency to APT102
inhibition of 20 μM ADP-induced ex vivo platelet aggregation (platelet aggregation; 1 h after dosing): 90%
inhibition of 20 μM ADP-induced ex vivo platelet aggregation (platelet aggregation; 6 h after dosing): 80%
inhibition of 20 μM ADP-induced ex vivo platelet aggregation (platelet aggregation; by 10 min after dosing): 95%
thrombus weight compared with any other treatments (arterial thrombosis; rabbit EIM, 24 ug/kg/min): lowest thrombus weight
occlusion within 2 h (arterial thrombosis; rabbit EIM, 0.2 mg/kg IV bolus then 12 ug/kg/min): completely prevented occlusion
occlusion within 2 h (arterial thrombosis; rabbit EIM, 0.2 mg/kg IV bolus then 24 ug/kg/min): completely prevented occlusion
thrombosis weight (arterial thrombosis; rabbit EIM, infusion 4, 12, 24 μg/kg/min): dose-dependently reduced
bleeding time (BT) (arterial thrombosis; rabbit, in vivo): did not affect
blood pressure (mean arterial pressure) (arterial thrombosis; rabbit, in vivo): did not affect
heart rate (arterial thrombosis; rabbit, in vivo): did not affect
partial thromboplastin time (arterial thrombosis; rabbit, in vivo): did not affect
prothrombin time (arterial thrombosis; rabbit, in vivo): did not affect
peak thrombin concentration [4]: mimicked
time to peak thrombin [4]: mimicked
inhibition of thrombin generation ([4]; ADP-activated human PRP): comparable inhibitory effects
APT402 plasma concentration over time [9]: maintained up to 120 min during infusion
extension of elimination half-life compared to annexin V ([10]; 6 h vs 20 min): 18 fold
distribution phase half-life ([10]; rabbit, 0.40 mg/kg IV bolus): 0.5 h
time of maximal activity in the plasma after administration ([10]; rabbit, 0.40 mg/kg IV bolus, ADPase activity): 30 min
thrombin generation (thrombin generation; at 60 and 110 min): effectively attenuated
thrombin generation (thrombin generation; at 180 min): returned to the baseline level
inhibition of thrombin generation over time (thrombin generation; [14]): maintained up to 120 min during infusion
reduction of thrombus weight (IVC thrombosis; 1.0 mg/kg ip bolus daily for 2 days): 53%
reduction of thrombus weight (IVC thrombosis; high dose: 0.2 mg/kg ip bolus then 0.09 mg/kg/h sc for 48 h): 65%
reduction of thrombus weight (IVC thrombosis; low dose: 0.2 mg/kg ip bolus then 0.03 mg/kg/h sc for 48 h): 44%
prolongation of BT (IVC thrombosis; mouse, in vivo): did not cause detectable prolongation
prolongation of TCT (IVC thrombosis; mouse, in vivo): did not cause detectable prolongation
prolongation of aPTT (IVC thrombosis; mouse, in vivo): did not cause detectable prolongation
bleeding time (IVC thrombosis; mouse, in vivo, ip, 1 mg/kg): without increasing bleeding time
deaths, increased bleeding or gross side effects [5]: no deaths or increased bleeding or gross side effects
reduction of collagen deposition [5]: 33%
ACT vs control animals [11]: no differences
PT vs control animals [11]: no differences
aPTT vs control animals [11]: no differences
bleeding time vs control animals [11]: no differences
platelet counts vs control animals [11]: no differences
enzymatic kinetic parameters for ATP and ADP [12]: comparable to those of APT102
ADP-induced (50 uM) platelet aggregation in rabbit PRP ([13]; at 60 and 110 min): effectively inhibited
ADP-induced (50 uM) platelet aggregation in rabbit PRP ([13]; at 180 min): returned to the baseline level
inhibition of ADP-induced platelet aggregation over time [13, 14]: maintained up to 120 min during infusion

— patent US20230119254A1, “SYNERGISTIC AND TARGETING COMPOSITIONS FOR TREATMENT OF ARTERIAL AND VENOUS THROMBOSIS” (AstraZeneca AB, priority 2020, published 2023)
